Test results reported in US20230165981A1, “[161Tb]-BASED RADIOPEPTIDES” (priority 2021, published 2023).
Values joined by “and” are separate entries in the source; they are usually repeats but may differ in a detail not shown here. Identical values can stand only once. Like-named read-outs stand apart in the source and are kept apart here. Positions of bridges follow the written chain, without caps; N, C: chain ends. Non-standard residues stand in square brackets, D forms with d. Residues, ends and D or L forms follow the SMILES beside them. *: point of attachment. DOTA = O=C(O)CN1CCN(CC(=O)O)CCN(CC(=O)*)CCN(CC(=O)O)CC1; dPhe(4-NHCONH2) = NC(=O)Nc1ccc(C[C@@H](N)C(=O)O)cc1; Phe(4-Cl) = N[C@@H](Cc1ccc(Cl)cc1)C(=O)O

Columns and labels:
[1] = Biodistribution: optimum injected molar amount; settings: female, mouse, in vivo, iv, total radioactivity, 2 h p.i.
[2] = n-octanol/PBS distribution coefficient (logD), shake-flask method; format: physicochemical; settings: n-octanol/PBS pH 7.4
Description: An aliquot of the radiolabeled peptide (0.5 MBq, 25 µL) was added to a mixture of 1475 µL PBS pH 7.4 and 1500 µL n-octanol. The respective tubes were vortexed for 60 sec and centrifuged for 6 min at 2500 rpm followed by the measurement of the activity concentration in a defined volume of each layer using a γ-counter (Perkin Elmer, Wallac Wizard 1480). The logD values were calculated as the logarithm of the ratio of counts per minute (cpm) measured in the n-octanol phase relative to the cpm measured in the PBS pH 7.4 phase. The experiments were performed three times with five replicates for each radiopeptide and the logD value was expressed as the average ± standard deviation (SD) of the values obtained in each experiment. […] A p value <0.05 was considered statistically significant.

[3] = Assessment of early side effects in therapy mice; settings: endpoint of therapy
Description: Early side effects were assessed based on the RBW of each mouse which was monitored every second day. When an endpoint was reached or at the end of the study (after 49 days), relevant organs and tissues were collected, weighed and put into relation to the brain mass and body weight of the respective mouse. This allowed comparison of organ-to-brain and organ-to-body mass weight ratios. In addition, blood plasma parameters from blood collected immediately after euthanasia were measured.
RBW, organ mass and mass ratios at the endpoint: The RBW was monitored every second day. Mice were euthanized when a predefined endpoint criterion was reached or when the study was terminated at Day 49. RBWs, organ masses, organ mass ratios (kidney-to-brain, liver-to-brain and spleen-to-brain) and organ mass to body weight ratios (kidney-to-body mass, liver-to-body mass and spleen-to-body mass) were analyzed for significance using a one-way ANOVA test with a Tukey’s multiple comparisons post-test. A p-value of <0.05 was considered as statistically significant.
Blood plasma chemistry: Immediately before euthanasia of the mice that reached the endpoint, blood was sampled from the retrobulbar vein. The values of creatinine (CRE), blood urea nitrogen (BUN), alkaline phosphatase (ALP), total bilirubin (TBIL) and albumin (ALB) were determined in the plasma after centrifugation of the blood using a dry chemistry analyzer (DRI-CHEM 4000i, FUJIFILM, Japan). The average blood plasma parameters of each group were analyzed for significance using a one-way ANOVA test with a Tukey’s multiple comparisons post-test. A p-value of <0.05 was considered as statistically significant.

in vivo = settings: female, athymic nude (CD-1 Foxn-1nu), mouse, iv, 1 nmol/mouse, total radioactivity
Description: Five-week-old female, athymic nude mice (CD-1 Foxn-⅟nu) were obtained from Charles River Laboratories (Sulzfeld, Germany). Mice were subcutaneously inoculated with AR42J tumor cells (5 × 10^6 cells in 100 µL PBS) for SPECT/CT imaging, biodistribution and therapy studies. The SPECT/CT and biodistribution studies were performed 10-14 days after tumor cell inoculation when the tumor size reached a volume of ~250 mm^3.
The mice were sacrificed at 2 h and 24 h post injection (p.i.). Selected tissues and organs were collected, weighed, and the accumulated activity was counted in a γ-counter. The decay-corrected data were listed as the percentage of the injected activity per gram of tissue mass (% IA/g). The data were analyzed for significance using a two-way ANOVA with Tukey’s multiple comparison post-tests. A p-value of <0.05 was considered statistically significant.

AR42J tumor-bearing mice = experiment: Biodistribution: optimum injected molar amount; settings: 2 h p.i.
AR42J tumors = experiment: Preclinical therapy study in AR42J tumor-bearing mice; format: in vivo

C[C@@H](O)[C@@H]1NC(=O)[C@H](CCCCN)NC(=O)[C@@H](Cc2c[nH]c3ccccc23)NC(=O)[C@H](Cc2ccc(O)cc2)NC(=O)[C@@H](NC(=O)[C@@H](Cc2ccccc2)NC(=O)CN2CCN(CC(=O)O)CCN(CC(=O)O)CCN(CC(=O)O)CC2)CSSC[C@@H](C(=O)N[C@H](CO)[C@@H](C)O)NC1=O [[^161Tb]Tb-DOTATOC, metal not drawn]
tissue uptake at 2 h ([1]; CD-1 Foxn-1nu athymic nude, 0.04 nmol/mouse, Biodistribution: Adrenals, 0.040 nmol/mouse): 0.65 ± 0.08 %ID/g
tissue uptake at 2 h ([1]; CD-1 Foxn-1nu athymic nude, 0.04 nmol/mouse, Biodistribution: Kidneys, 0.040 nmol/mouse): 9 ± 2 %ID/g
tissue uptake at 2 h ([1]; CD-1 Foxn-1nu athymic nude, 0.2 nmol/mouse, Biodistribution: Heart, 0.20 nmol/mouse): < 0.1 %ID/g
tissue uptake at 2 h ([1]; athymic nude (CD-1 Foxn-1nu), 0.04 nmol/mouse, Biodistribution: AR42J Tumor, 0.040 nmol/mouse): 16 ± 4 %ID/g
tissue uptake at 2 h ([1]; athymic nude (CD-1 Foxn-1nu), 0.04 nmol/mouse, Biodistribution: Blood, 0.040 nmol/mouse): < 0.1 %ID/g
tissue uptake at 2 h ([1]; athymic nude (CD-1 Foxn-1nu), 0.04 nmol/mouse, Biodistribution: Heart, 0.040 nmol/mouse): < 0.1 %ID/g
tissue uptake at 2 h ([1]; athymic nude (CD-1 Foxn-1nu), 0.04 nmol/mouse, Biodistribution: Muscle, 0.040 nmol/mouse): < 0.1 %ID/g
tissue uptake at 2 h ([1]; athymic nude (CD-1 Foxn-1nu), 0.2 nmol/mouse, Biodistribution: AR42J Tumor, 0.20 nmol/mouse): 14 ± 1 %ID/g
tissue uptake at 2 h ([1]; athymic nude (CD-1 Foxn-1nu), 0.2 nmol/mouse, Biodistribution: Blood, 0.20 nmol/mouse): < 0.1 %ID/g
tissue uptake at 2 h ([1]; athymic nude (CD-1 Foxn-1nu), 0.2 nmol/mouse, Biodistribution: Muscle, 0.20 nmol/mouse): < 0.1 %ID/g
tissue uptake at 2 h ([1]; athymic nude (CD-1 Foxn-1nu), 1 nmol/mouse, Biodistribution: AR42J Tumor, 1.0 nmol/mouse): ~8 %ID/g
tissue uptake at 2 h ([1]; athymic nude (CD-1 Foxn-1nu), kidney uptake, irrespective of the applied setting (0.04-1.0 nmol)): ~10 %ID/g

C[C@@H](O)[C@@H]1NC(=O)[C@H](CCCCN)NC(=O)[C@@H](Cc2ccc(NC(N)=O)cc2)NC(=O)[C@H](Cc2ccc(O)cc2)NC(=O)[C@H](NC(=O)[C@H](Cc2ccc(Cl)cc2)NC(=O)CN2CCN(CC(=O)O)CCN(CC(=O)O)CCN(CC(=O)O)CC2)CSSC[C@@H](C(=O)N[C@H](Cc2ccc(O)cc2)C(N)=O)NC1=O [metal not drawn] ({DOTA}-[Phe(4-Cl)][dC]Y[dPhe(4-NHCONH2)]KTC[dY]-NH2; disulfide 2-7)
LogD ([2]; read-out: LogD): -2.5 ± 0.1
ALB (albumin) [3]: 23 ± 1 g/L
ALP (alkaline phosphatase) [3]: 66 ± 5 U/L
BUN (blood urea nitrogen) [3]: 8.2 ± 1.9 mmol/L and 8.2 ± 1.8 mmol/L
CRE (plasma creatinine) [3]: <18 (n=5) µmol/L and 19 (n=1) µmol/L
TBIL (total bilirubin) [3]: <3 (n=4) µmol/L and 4 ± 1 (n=2) µmol/L
tissue uptake at 24 h (in vivo; intestines): 0.14 ± 0.03 %ID/g
tissue uptake at 2 h (in vivo; kidneys): 11 ± 1 %ID/g
Tu-to-adr (tumor-to-adrenals) (AR42J tumor-bearing mice; 0.040 nmol/mouse): 11 ±4
Tu-to-blood (AR42J tumor-bearing mice; 0.040 nmol/mouse): 289 ± 45
Tu-to-kidney (AR42J tumor-bearing mice; 0.040 nmol/mouse): 4.3 ± 1.2
Tu-to-adr (tumor-to-adrenals) (AR42J tumor-bearing mice; 0.20 nmol/mouse): 34 ± 9.2
Tu-to-blood (AR42J tumor-bearing mice; 0.20 nmol/mouse): 492 ± 102
Tu-to-kidney (AR42J tumor-bearing mice; 0.20 nmol/mouse): 4.3 ± 0.4
Tu-to-liver (AR42J tumor-bearing mice; 0.20 nmol/mouse): 90 ± 11
Biodistribution: Blood (AR42J tumor-bearing mice; 1.0 nmol/mouse): ≤0.10 % IA/g
Biodistribution: Heart (AR42J tumor-bearing mice; 1.0 nmol/mouse): ≤0.10 % IA/g
Biodistribution: Muscle (AR42J tumor-bearing mice; 1.0 nmol/mouse): ≤0.10 % IA/g
Tu-to-adr (tumor-to-adrenals) (AR42J tumor-bearing mice; 1.0 nmol/mouse): 36 ± 6

C[C@@H](O)[C@@H]1NC(=O)[C@H](CCCCN)NC(=O)[C@@H](Cc2c[nH]c3ccccc23)NC(=O)[C@H](Cc2ccc(O)cc2)NC(=O)[C@@H](NC(=O)[C@@H](Cc2ccccc2)NC(=O)CN2CCN(CC(=O)O)CCN(CC(=O)O)CCN(CC(=O)O)CC2)CSSC[C@@H](C(=O)N[C@H](CO)[C@@H](C)O)NC1=O [[^177Lu]Lu-DOTATOC] [metal not drawn]
LogD [2]: -3.1 ± 0.2
Median survival (AR42J tumors; 2 x 10 MBq, 0.2 nmol): 19.5 days
tumor growth delay (AR42J tumors; 2 x 10 MBq, 0.2 nmol, Day 0 and 7): 6.0 ± 4.4 days
Time frame of euthanasia (AR42J tumors; 2 x 10 MBq, 0.2 nmol, end of study = 49 days): 12 to 22 days
tumor doubling time (AR42J tumors; regrowth phase): 3.4 ± 0.8 days
ALB (albumin) [3]: 24 ± 5 g/L
ALP (alkaline phosphatase) [3]: 77 ± 8 U/L
BUN (blood urea nitrogen) [3]: 6.3 ± 0.9 mmol/L
CRE (plasma creatinine) [3]: <18 (n=5) µmol/L
TBIL (total bilirubin) [3]: < 3 µmol/L and 4 ± 1 µmol/L
Biodistribution: AR42J Tumor (AR42J tumor-bearing mice; 0.040 nmol/mouse): ~ 17 % IA/g
Biodistribution: Blood (AR42J tumor-bearing mice; 0.040 nmol/mouse): ≤0.10 % IA/g
Biodistribution: Heart (AR42J tumor-bearing mice; 0.040 nmol/mouse): ≤0.10 % IA/g
Biodistribution: Kidneys (AR42J tumor-bearing mice; 0.040 nmol/mouse): 10 ± 2 % IA/g
Biodistribution: Muscle (AR42J tumor-bearing mice; 0.040 nmol/mouse): ≤0.10 % IA/g
Tu-to-adr (tumor-to-adrenals) (AR42J tumor-bearing mice; 0.040 nmol/mouse): 28 ± 2
Tu-to-blood (AR42J tumor-bearing mice; 0.040 nmol/mouse): 213 ± 41
Tu-to-kidney (AR42J tumor-bearing mice; 0.040 nmol/mouse): 1.9 ± 0.3
Tu-to-liver (AR42J tumor-bearing mice; 0.040 nmol/mouse): 100 ± 8
Tu-to-lung (tumor-to-lungs) (AR42J tumor-bearing mice; 0.040 nmol/mouse): 17 ± 3
Tu-to-panc (tumor-to-pancreas) (AR42J tumor-bearing mice; 0.040 nmol/mouse): 9.7 ± 1.8
Tu-to-sto (tumor-to-stomach) (AR42J tumor-bearing mice; 0.040 nmol/mouse): 11 ± 2
Biodistribution: Blood (AR42J tumor-bearing mice; 0.20 nmol/mouse): <0.10 % IA/g
Biodistribution: Femur (AR42J tumor-bearing mice; 0.20 nmol/mouse): 0.10 ± 0.01 % IA/g
Biodistribution: Heart (AR42J tumor-bearing mice; 0.20 nmol/mouse): <0.10 % IA/g
Biodistribution: Kidneys (AR42J tumor-bearing mice; 0.20 nmol/mouse): 10 ± 3 % IA/g
Biodistribution: Muscle (AR42J tumor-bearing mice; 0.20 nmol/mouse): <0.10 % IA/g
Tu-to-adr (tumor-to-adrenals) (AR42J tumor-bearing mice; 0.20 nmol/mouse): 47 ± 29
Tu-to-blood (AR42J tumor-bearing mice; 0.20 nmol/mouse): 235 ± 60
Tu-to-kidney (AR42J tumor-bearing mice; 0.20 nmol/mouse): 1.9 ± 0.4
Tu-to-liver (AR42J tumor-bearing mice; 0.20 nmol/mouse): 118 ± 24
Tu-to-lung (tumor-to-lungs) (AR42J tumor-bearing mice; 0.20 nmol/mouse): 27 ± 6
Tu-to-panc (tumor-to-pancreas) (AR42J tumor-bearing mice; 0.20 nmol/mouse): 10 ± 2
Tu-to-sto (tumor-to-stomach) (AR42J tumor-bearing mice; 0.20 nmol/mouse): 15 ± 4
Biodistribution: AR42J Tumor (AR42J tumor-bearing mice; 1.0 nmol/mouse): 8.9 ± 1.5 % IA/g
Biodistribution: Adrenals (AR42J tumor-bearing mice; 1.0 nmol/mouse): 0.28 ± 0.08 % IA/g
Biodistribution: Blood (AR42J tumor-bearing mice; 1.0 nmol/mouse): <0.10 % IA/g
Biodistribution: Femur (AR42J tumor-bearing mice; 1.0 nmol/mouse): <0.10 % IA/g
Biodistribution: Heart (AR42J tumor-bearing mice; 1.0 nmol/mouse): <0.10 % IA/g
Biodistribution: Intestines (AR42J tumor-bearing mice; 1.0 nmol/mouse): 0.20 ± 0.05 % IA/g
Biodistribution: Kidneys (AR42J tumor-bearing mice; 1.0 nmol/mouse): 11 ± 1 % IA/g
Biodistribution: Liver (AR42J tumor-bearing mice; 1.0 nmol/mouse): 0.26 ± 0.07 % IA/g
Biodistribution: Lung (AR42J tumor-bearing mice; 1.0 nmol/mouse): 0.37 ± 0.06 % IA/g
Biodistribution: Muscle (AR42J tumor-bearing mice; 1.0 nmol/mouse): <0.10 % IA/g
Biodistribution: Pancreas (AR42J tumor-bearing mice; 1.0 nmol/mouse): 0.80 ± 0.13 % IA/g
Biodistribution: Spleen (AR42J tumor-bearing mice; 1.0 nmol/mouse): 0.15 ± 0.03 % IA/g
Biodistribution: Stomach (AR42J tumor-bearing mice; 1.0 nmol/mouse): 0.65 ± 0.11 % IA/g
Tu-to-adr (tumor-to-adrenals) (AR42J tumor-bearing mice; 1.0 nmol/mouse): 29 ± 3
Tu-to-lung (tumor-to-lungs) (AR42J tumor-bearing mice; 1.0 nmol/mouse): 25 ± 3
Tu-to-panc (tumor-to-pancreas) (AR42J tumor-bearing mice; 1.0 nmol/mouse): 13 ± 1
Tu-to-sto (tumor-to-stomach) (AR42J tumor-bearing mice; 1.0 nmol/mouse): 15 ± 5
kidney uptake (AR42J tumor-bearing mice; irrespective of the applied setting (0.04-1.0 nmol)): ~ 10%
